Results as given in patent US20080220049A1.

molecular target: mouse vascular endothelial growth factor receptor-2 Fc chimera (Flk-1-Fc) (mouse) (UniProt P35918); test: radioactive equilibrium binding, 1 nM Flk-1-Fc
Sequence (P35918 20-762, change not shown): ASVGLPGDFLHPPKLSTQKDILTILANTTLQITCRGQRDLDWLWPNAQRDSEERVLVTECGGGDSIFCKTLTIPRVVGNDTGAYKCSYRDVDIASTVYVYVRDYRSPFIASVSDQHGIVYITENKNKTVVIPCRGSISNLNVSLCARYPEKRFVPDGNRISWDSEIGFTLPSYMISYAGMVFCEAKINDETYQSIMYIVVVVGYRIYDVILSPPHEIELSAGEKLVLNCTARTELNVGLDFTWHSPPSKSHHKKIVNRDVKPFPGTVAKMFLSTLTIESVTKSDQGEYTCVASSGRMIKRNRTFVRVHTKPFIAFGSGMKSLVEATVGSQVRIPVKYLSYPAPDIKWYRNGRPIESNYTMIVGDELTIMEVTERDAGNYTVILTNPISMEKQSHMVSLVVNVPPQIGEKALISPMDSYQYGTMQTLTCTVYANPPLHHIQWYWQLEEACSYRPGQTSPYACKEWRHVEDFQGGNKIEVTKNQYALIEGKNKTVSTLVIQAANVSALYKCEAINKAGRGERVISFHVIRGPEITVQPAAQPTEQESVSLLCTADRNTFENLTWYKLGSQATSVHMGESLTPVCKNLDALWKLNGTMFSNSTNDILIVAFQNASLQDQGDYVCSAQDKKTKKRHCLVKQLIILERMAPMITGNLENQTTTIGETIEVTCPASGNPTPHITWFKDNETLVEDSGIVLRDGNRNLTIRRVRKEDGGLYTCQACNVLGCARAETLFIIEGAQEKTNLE

| Binder | Binding to 1 nM Flk-1, % [%] |
| --- | --- |
| A4 (designed binder) EVVAATPTSLLISWRHPHFPTRYYRITYGETGGNSPVQEFTVPLQPPTATISGLKPGVDYTITGYAVTDGYNDRLLFIPISINYRT | 2 |
| A8 (designed binder) EVVAATPTSLLISWRHPHFPTRYYRITYGETGGNSPVQEFTVPLQPPTATISGLKPGVDYTITGYAVTDGLNGKYLFVPISINYRT | 4 |
| A9 (designed binder) EVVAATPTSLLISWRHPHFPTRYYRITYGETGGNSPVQEFTVPLQPPTATISGLKPGVDYTITGYAVTEGWNDRELFVPISINYRT | 4 |
| A7 (designed binder) EVVAATPTSLLISWRHPHFPTRYYRITYGETGGNSPVQEFTVPLQPPTATISGLKPGVDYTITGYAVTDGPNNRELIVPISINYRT | 2 |
| F12 (designed binder) EVVAATPTSLLISWRHPHFPTRYYRITYGETGGNSPVQEFTVPLQPPTATISGLKPGVDYTITGYAVTDGRNGHELMTPISINYRT | 1 |
| EGE9 (designed binder) EVVAATPTSLLISWRHPHFPTRYYRITYGETGGNSPVQEFTVPLQPPTATISGLKPGVDYTITGYAVTFGPNDRELLTPISINYRT | 1 |
| EGE11 (Table 2 row SEQ ID NO 88) (designed binder) EVVAATPTSLLISWRHPHFPTRYYRITYGETGGNSPVQEFTVPLQPPTATISGLKPGVDYTITGYAVTMGKNDRELLTPISINYRT | 1 |
| D11 (designed binder) EVVAATPTSLLISWRHPHFPTRYYRITYGETGGNSPVQEFTVPLQPPTATISGLKPGVDYTITGYAVTVERNGHKLFTPISINYRT | 3 |
| F1 (designed binder) EVVAATPTSLLISWRHPHFPTRYYRITYGETGGNSPVQEFTVPLQPPTATISGLKPGVDYTITGYAVTSGRNDRELLVPISINYRT | 2 |
| E13 (designed binder) EVVAATPTSLLISWRHPHFPTRYYRITYGETGGNSPVQEFTVPLQPPTATISGLKPGVDYTITGYAVTLEQNGRELMTPISINYRT | 1 |
| G1 (designed binder) EVVAATPTSLLISWRHPHFPTRYYRITYGETGGNSPVQEFTVPLQPPTATISGLKPGVDYTITGYAVTEGRNGRELMVPISINYRT | 2 |
| E12 (designed binder) EVVAATPTSLLISWRHPHFPTRYYRITYGETGGNSPVQEFTVPLQPPTATISGLKPGVDYTITGYAVTFARDGHEILTPISINYRT | 1 |
| E22 (designed binder) EVVAATPTSLLISWRHPHFPTRYYRITYGETGGNSPVQEFTVPLQPPTATISGLKPGVDYTITGYAVTLGRNDRELLTPISINYRT | 3 |
| A10 (designed binder) EVVAATPTSLLISWRHPHFPTRYYRITYGETGGNSPVQEFTVPLQPPTATISGLKPGVDYTITGYAVTFGWNGRELLTPISINYRT | 4 |
| E15 (designed binder) EVVAATPTSLLISWRHPHFPTRYYRITYGETGGNSPVQEFTVPLQPPTATISGLKPGVDYTITGYAVTLEPNGRYLMVPISINYRT | 2 |
| E10 (designed binder) EVVAATPTSLLISWRHPHFPTRYYRITYGETGGNSPVQEFTVPLQPPTATISGLKPGVDYTITGYAVTEGRNGRELFIPISINYRT | 3 |
| E21 (designed binder) EVVAATPTSLLISWRHPHFPTRYYRITYGETGGNSPVQEFTVPLQPPTATISGLKPGVDYTITGYAVTWGYKDHELLIPISINYRT | 1 |
| F10 (designed binder) EVVAATPTSLLISWRHPHFPTRYYRITYGETGGNSPVQEFTVPLQPPTATISGLKPGVDYTITGYAVTMAPNGRELLTPISINYRT | 1 |
| EGE10 (designed binder) EVVAATPTSLLISWRHPHFPTRYYRITYGETGGNSPVQEFTVPLQPPTATISGLKPGVDYTITGYAVTMGPNDRELLTPISINYRT | 1 |
